B1: Lysozyme C, P61626 (parent)
chain: MKALIVLGLVLLSVTVQGKVFERCELARTLKRLGMDGYRGISLANWMCLAKWESGYNTRATNYNAGDRSTDYGIFQINSRYWCNDGKTPGAVNACHLSCSALLQDNIADAVACAKRVVRDPQGIRAWVAWRNRCQNRDVRQYVQGCGV

The first data set covers variants of B1. The settings on record: Homo sapiens; pH 2.5; Thermal; DSC; glycine-HCl 0.05 M; reversible: yes; structure 1LZ1; whole UniProt chain shown.
For orientation: Tm means the temperature at which the thermal transition is half complete. As to MKALIVLGLVLLSVTVQGKVFERCELARTLKRLGMDGYRGISLANWMCLAKWESGYNTRATNYNAGDRSVDYGIFQINSRYWCNDGKTPGAVNACHLSCSALLQDNIADAVACAKRVVRDPQGIRAWVAWRNRCQNRDVRQYVQGCGV [T70V], the Tm was 58.8 °C, the “unfolding enthalpy (calorimetric)” value was 98.7 kcal/mol and the “unfolding enthalpy (van 't Hoff)” value was found to be 104 kcal/mol.

Still in this data set, the particulars now being: Homo sapiens; pH 2.7; Thermal; DSC; glycine-HCl 0.05 M; reversible: yes; structure 1LZ1; whole UniProt chain shown.
Take MKALIVLGLVLLSVTVQGKVFERCELARTLKRLGMDGYRGISLANWMCLAKWESGYNTRATNYNAGDRSVDYGIFQINSRYWCNDGKTPGAVNACHLSCSALLQDNIADAVACAKRVVRDPQGIRAWVAWRNRCQNRDVRQYVQGCGV [T70V]: the Tm was found to be 62.1 °C, the “unfolding enthalpy (calorimetric)” value worked out at 102 kcal/mol and the “unfolding enthalpy (van 't Hoff)” value came out at 107 kcal/mol.
For MKALIVLGLVLLSVTVQGKVFERCELARTLKRLGMDGYRGISLANWMCLAKWESGYNTRATNYNAGDRSADYGIFQINSRYWCNDGKTPGAVNACHLSCSALLQDNIADAVACAKRVVRDPQGIRAWVAWRNRCQNRDVRQYVQGCGV [T70A], in that order: 61.9 °C, 103 kcal/mol and 109 kcal/mol.

Still in this data set, the particulars now being: Homo sapiens; pH 2.85; Thermal; DSC; glycine-HCl 0.05 M; reversible: yes; structure 1LZ1; whole UniProt chain shown.
With MKALIVLGLVLLSVTVQGKVFERCELARTLKRLGMDGYRGISLANWMCLAKWESGYNTRATNYNAGDRSVDYGIFQINSRYWCNDGKTPGAVNACHLSCSALLQDNIADAVACAKRVVRDPQGIRAWVAWRNRCQNRDVRQYVQGCGV [T70V], the midpoint of thermal melting (Tm) is 64.2 °C, the “unfolding enthalpy (calorimetric)” value turned out to be 105 kcal/mol and the “unfolding enthalpy (van 't Hoff)” value was determined as 110 kcal/mol.
For MKALIVLGLVLLSVTVQGKVFERCELARTLKRLGMDGYRGISLANWMCLAKWESGYNTRATNYNAGDRSADYGIFQINSRYWCNDGKTPGAVNACHLSCSALLQDNIADAVACAKRVVRDPQGIRAWVAWRNRCQNRDVRQYVQGCGV [T70A], the Tm came to 64.4 °C, the “unfolding enthalpy (calorimetric)” value amounted to 105 kcal/mol and the “unfolding enthalpy (van 't Hoff)” value was 112 kcal/mol.

The same data set, now with this note: Homo sapiens; pH 3; Thermal; DSC; glycine-HCl 0.05 M; reversible: yes; structure 1LZ1; whole UniProt chain shown.
MKALIVLGLVLLSVTVQGKVFERCELARTLKRLGMDGYRGISLANWMCLAKWESGYNTRATNYNAGDRSVDYGIFQINSRYWCNDGKTPGAVNACHLSCSALLQDNIADAVACAKRVVRDPQGIRAWVAWRNRCQNRDVRQYVQGCGV [T70V]: the Tm was 66.6 °C, the “unfolding enthalpy (calorimetric)” value turned out to be 107 kcal/mol and the “unfolding enthalpy (van 't Hoff)” value came to 113 kcal/mol.
In the same order, the values of MKALIVLGLVLLSVTVQGKVFERCELARTLKRLGMDGYRGISLANWMCLAKWESGYNTRATNYNAGDRSADYGIFQINSRYWCNDGKTPGAVNACHLSCSALLQDNIADAVACAKRVVRDPQGIRAWVAWRNRCQNRDVRQYVQGCGV [T70A] are 66.9 °C, 108 kcal/mol and 114 kcal/mol.

Staying with this data set, now noted: Homo sapiens; pH 3.1; Thermal; DSC; glycine-HCl 0.05 M; reversible: yes; structure 1LZ1; whole UniProt chain shown.
On to MKALIVLGLVLLSVTVQGKVFERCELARTLKRLGMDGYRGISLANWMCLAKWESGYNTRATNYNAGDRSVDYGIFQINSRYWCNDGKTPGAVNACHLSCSALLQDNIADAVACAKRVVRDPQGIRAWVAWRNRCQNRDVRQYVQGCGV [T70V], for which the midpoint of thermal melting (Tm) is 68.7 °C, the “unfolding enthalpy (calorimetric)” value was determined as 111 kcal/mol and the “unfolding enthalpy (van 't Hoff)” value came to 114 kcal/mol.
As for MKALIVLGLVLLSVTVQGKVFERCELARTLKRLGMDGYRGISLANWMCLAKWESGYNTRATNYNAGDRSADYGIFQINSRYWCNDGKTPGAVNACHLSCSALLQDNIADAVACAKRVVRDPQGIRAWVAWRNRCQNRDVRQYVQGCGV [T70A], the Tm came out at 68.9 °C, the “unfolding enthalpy (calorimetric)” value turned out to be 109 kcal/mol and the “unfolding enthalpy (van 't Hoff)” value was determined as 118 kcal/mol.

The same data set, now with this note: Homo sapiens; pH 2.74; Thermal; DSC; glycine-HCl 0.05 M; reversible: yes; structure 1LZ1; whole UniProt chain shown.
Regarding MKALIVLGLVLLSVTVQGKVFERCELARALKRLGMDGYRGISLANWMCLAKWESGYNTRATNYNAGDRSTDYGIFQINSRYWCNDGKTPGAVNACHLSCSALLQDNIADAVACAKRVVRDPQGIRAWVAWRNRCQNRDVRQYVQGCGV [T29A], the Tm amounted to 66.8 °C, the “unfolding enthalpy (calorimetric)” value came out at 112 kcal/mol and the “unfolding enthalpy (van 't Hoff)” value came out at 115 kcal/mol.
Regarding MKALIVLGLVLLSVTVQGKVFERCELARTLKRLGMDGYRGISLANWMCLAKWESGYNTRAANYNAGDRSTDYGIFQINSRYWCNDGKTPGAVNACHLSCSALLQDNIADAVACAKRVVRDPQGIRAWVAWRNRCQNRDVRQYVQGCGV [T61A], the Tm was found to be 64.5 °C, the “unfolding enthalpy (calorimetric)” value amounted to 108 kcal/mol and the “unfolding enthalpy (van 't Hoff)” value was 109 kcal/mol.

The same data set, now with this note: Homo sapiens; pH 2.82; Thermal; DSC; glycine-HCl 0.05 M; reversible: yes; structure 1LZ1; whole UniProt chain shown.
Consider MKALIVLGLVLLSVTVQGKVFERCELARALKRLGMDGYRGISLANWMCLAKWESGYNTRATNYNAGDRSTDYGIFQINSRYWCNDGKTPGAVNACHLSCSALLQDNIADAVACAKRVVRDPQGIRAWVAWRNRCQNRDVRQYVQGCGV [T29A], for which the Tm turned out to be 68.5 °C, the “unfolding enthalpy (calorimetric)” value was 115 kcal/mol and the “unfolding enthalpy (van 't Hoff)” value was 116 kcal/mol.

The data set is the same for the next values; noted with them: Homo sapiens; pH 3.02; Thermal; DSC; glycine-HCl 0.05 M; reversible: yes; structure 1LZ1; whole UniProt chain shown.
With MKALIVLGLVLLSVTVQGKVFERCELARALKRLGMDGYRGISLANWMCLAKWESGYNTRATNYNAGDRSTDYGIFQINSRYWCNDGKTPGAVNACHLSCSALLQDNIADAVACAKRVVRDPQGIRAWVAWRNRCQNRDVRQYVQGCGV [T29A], the Tm turned out to be 71.4 °C, the “unfolding enthalpy (calorimetric)” value came to 116 kcal/mol and the “unfolding enthalpy (van 't Hoff)” value is 119 kcal/mol.

Staying with this data set, now noted: Homo sapiens; pH 3.22; Thermal; DSC; glycine-HCl 0.05 M; reversible: yes; structure 1LZ1; whole UniProt chain shown.
Regarding MKALIVLGLVLLSVTVQGKVFERCELARALKRLGMDGYRGISLANWMCLAKWESGYNTRATNYNAGDRSTDYGIFQINSRYWCNDGKTPGAVNACHLSCSALLQDNIADAVACAKRVVRDPQGIRAWVAWRNRCQNRDVRQYVQGCGV [T29A], the Tm worked out at 73.4 °C, the “unfolding enthalpy (calorimetric)” value was 119 kcal/mol and the “unfolding enthalpy (van 't Hoff)” value turned out to be 120 kcal/mol.

Staying with this data set, now noted: Homo sapiens; pH 2.51; Thermal; DSC; glycine-HCl 0.05 M; reversible: yes; structure 1LZ1; whole UniProt chain shown.
On to MKALIVLGLVLLSVTVQGKVFERCELARVLKRLGMDGYRGISLANWMCLAKWESGYNTRATNYNAGDRSTDYGIFQINSRYWCNDGKTPGAVNACHLSCSALLQDNIADAVACAKRVVRDPQGIRAWVAWRNRCQNRDVRQYVQGCGV [T29V], for which the Tm is 62.9 °C, the “unfolding enthalpy (calorimetric)” value is 104 kcal/mol and the “unfolding enthalpy (van 't Hoff)” value stood at 107 kcal/mol.

Still in this data set, the particulars now being: Homo sapiens; pH 2.71; Thermal; DSC; glycine-HCl 0.05 M; reversible: yes; structure 1LZ1; whole UniProt chain shown.
Take MKALIVLGLVLLSVTVQGKVFERCELARVLKRLGMDGYRGISLANWMCLAKWESGYNTRATNYNAGDRSTDYGIFQINSRYWCNDGKTPGAVNACHLSCSALLQDNIADAVACAKRVVRDPQGIRAWVAWRNRCQNRDVRQYVQGCGV [T29V]: the midpoint of thermal melting (Tm) worked out at 66.2 °C, the “unfolding enthalpy (calorimetric)” value amounted to 110 kcal/mol and the “unfolding enthalpy (van 't Hoff)” value amounted to 112 kcal/mol.

Still in this data set, the particulars now being: Homo sapiens; pH 2.81; Thermal; DSC; glycine-HCl 0.05 M; reversible: yes; structure 1LZ1; whole UniProt chain shown.
Turning to MKALIVLGLVLLSVTVQGKVFERCELARVLKRLGMDGYRGISLANWMCLAKWESGYNTRATNYNAGDRSTDYGIFQINSRYWCNDGKTPGAVNACHLSCSALLQDNIADAVACAKRVVRDPQGIRAWVAWRNRCQNRDVRQYVQGCGV [T29V], the Tm was 68.7 °C, the “unfolding enthalpy (calorimetric)” value is 114 kcal/mol and the “unfolding enthalpy (van 't Hoff)” value worked out at 117 kcal/mol.

Still in this data set, the particulars now being: Homo sapiens; pH 3.19; Thermal; DSC; glycine-HCl 0.05 M; reversible: yes; structure 1LZ1; whole UniProt chain shown.
Consider MKALIVLGLVLLSVTVQGKVFERCELARVLKRLGMDGYRGISLANWMCLAKWESGYNTRATNYNAGDRSTDYGIFQINSRYWCNDGKTPGAVNACHLSCSALLQDNIADAVACAKRVVRDPQGIRAWVAWRNRCQNRDVRQYVQGCGV [T29V], for which the Tm came out at 73 °C, the “unfolding enthalpy (calorimetric)” value came out at 117 kcal/mol and the “unfolding enthalpy (van 't Hoff)” value came out at 121 kcal/mol.

The data set is the same for the next values; noted with them: Homo sapiens; pH 2.54; Thermal; DSC; glycine-HCl 0.05 M; reversible: yes; structure 1LZ1; whole UniProt chain shown.
In the case of MKALIVLGLVLLSVTVQGKVFERCELARTLKRLGMDGYRGISLANWMCLAKWESGYNTRAANYNAGDRSTDYGIFQINSRYWCNDGKTPGAVNACHLSCSALLQDNIADAVACAKRVVRDPQGIRAWVAWRNRCQNRDVRQYVQGCGV [T61A], the Tm was determined as 61.1 °C, the “unfolding enthalpy (calorimetric)” value is 104 kcal/mol and the “unfolding enthalpy (van 't Hoff)” value was 105 kcal/mol.

The data set is the same for the next values; noted with them: Homo sapiens; pH 2.9; Thermal; DSC; glycine-HCl 0.05 M; reversible: yes; structure 1LZ1; whole UniProt chain shown.
As to MKALIVLGLVLLSVTVQGKVFERCELARTLKRLGMDGYRGISLANWMCLAKWESGYNTRAANYNAGDRSTDYGIFQINSRYWCNDGKTPGAVNACHLSCSALLQDNIADAVACAKRVVRDPQGIRAWVAWRNRCQNRDVRQYVQGCGV [T61A], the Tm is 67.1 °C, the “unfolding enthalpy (calorimetric)” value was 111 kcal/mol and the “unfolding enthalpy (van 't Hoff)” value was determined as 112 kcal/mol.
